This is an account of results in patent publication US8815528B2, “Methods and systems for detecting MHC class I binding peptides” (Beckman Coulter, Inc., priority 2002, dated 2014).

In assay [1] the target is STREPTACTIN® (mutated streptavidin molecule) (Streptomyces avidinii, UniProt P22629, E68V/S69T/V71R). The note with it: biotin-binding site of STREPTACTIN; read-out: binding affinity (Kd); cited from earlier work.
Assay [2] has as its target HLA-A2m monomer in ternary complex with binding peptide Mart-1 26-35L (human). The assay is described as follows: fluorimetric plate assay, avidin-coated plate, 40 min at room temperature; 1 µg/ml antibody, 0.5 µg/ml monomer.
For assay [3] the target is unchanged. The assay is described as follows: fluorimetric plate assay, avidin-coated plate, 40 min at room temperature; 0.5 µg/ml antibody, 0.5 µg/ml monomer.

Usually Kd stands for the equilibrium constant for the complex coming apart.

STREPTACTIN® (mutated streptavidin molecule), sequence (P22629 38-163 E68V/S69T/V71R): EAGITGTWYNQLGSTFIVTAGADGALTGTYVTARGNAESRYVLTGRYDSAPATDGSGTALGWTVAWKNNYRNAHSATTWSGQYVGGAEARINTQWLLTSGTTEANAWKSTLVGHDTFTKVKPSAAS

For “short peptide sequence binding the biotin-binding site of a mutated streptavidin molecule (STREPTACTIN) [streptagII]”, the dissociation constant Kd in assay [1] was roughly 1000 nM. As to “Anti-HLA-class I monoclonal antibody conjugated to FITC (clone: B9.12.1)”, the values for the Fluorescence units (FU) in assay [2] and in assay [3] were 600 FU and 300 FU, respectively.
